Data from publication PMC4894940, “The function of the two-pore channel TPC1 depends on dimerization of its carboxy-terminal helix” (Cellular and Molecular Life Sciences: CMLS, 2016).
Residues, ends and D or L forms follow the SMILES beside them.

Legend:
[1] = system: tryptophane-labeled 3LA mutant CTH peptide; assay: Label-free MicroScale Thermophoresis (MST), 3LA mutant CTH peptide; assay type: binding, Arabidopsis thaliana; settings: 3 nM to 100 µM, 750 nM tryptophane-labeled peptide, PBS pH 7.5, 1 % DMSO, 0.1 % Pluronic, 25 °C, technical duplicates
Method: (§1) For MST experiments, peptides corresponding to the consensus helical sequence (RSQRVDTLLHHMLGDEL) and the 3LA mutant (RSQRVDTAAHHMAGDEL) were synthesized (Peptide Speciality Laboratories GmbH, Heidelberg, Germany). To allow for label-free MST binding experiments, additional wild type and mutant peptides were synthesized, which were C-terminally extended by addition of two tryptophanes and a short linker (AAWW).
(§2) Labelfree MicroScale Thermophoresis binding experiments were performed in cooperation with the 2bind GmbH (Regensburg, Germany), using 750 nM tryptophane containing target peptide in PBS pH 7.5, 1 % DMSO, 0.1 % Pluronic with varied concentrations of the ligand peptide at 80 % MST power, 100 % LED power in hydrophilic zero background capillaries on a Monolith NT.labelfree device at 25 °C (NanoTemper Technologies, Munich, Germany). Normalized fluorescence data sets (WT peptide and MT peptide) were analyzed in the thermophoresis and temperature jump. For determination of the binding affinity (K D) of the wild type peptide, the recorded fluorescence was normalized to the fraction bound (0 = unbound, 1 = bound), and fitted using the K D fit formula derived from the law of mass action. Technical duplicates were performed for each experimental setup.

[2] = target: wild type peptide labeled by tryptophane (Arabidopsis thaliana, UniProt Q94KI8); assay: Label-free MicroScale Thermophoresis (MST), CTH wild type peptide; assay type: binding; settings: 750 nM tryptophane-containing target peptide, ligand 3 nM to 100 µM, PBS pH 7.5, 1 % DMSO, 0.1 % Pluronic, 25 °C, 80 % MST power, 100 % LED power, technical duplicates, read-out: dissociation constant (K D) of CTH homo-dimerization
Method: as §1, §2

[3] = target: the molecule itself; assay: MST; label-free MST; 750 nM tryptophane-containing target peptide in PBS pH 7.5, 1 % DMSO, 0.1 % Pluronic, unlabeled ligand peptide varied from 3 nM to 100 µM, 25 °C, Monolith NT.labelfree; monomer to dimer
[4] = system: Myc-tagged C-terminus of TPC1; assay: Co-immunoprecipitation of TPC1 C-termini in HEK293T cells; assay type: binding, Arabidopsis thaliana; settings: IP anti-Myc, WB anti-Myc / anti-Flag, 3 independent experiments
Excerpt: For the Co-IP tests the C-terminally tagged GFP-fusions were used as templates to amplify the soluble C-terminus (amino acids 673–733) of TPC1 or TPC1-3LP fused to GFP with PCR. The constructs were subcloned into the pENTR-D-TOPO vector and afterwards brought into the expression vectors with EcoRI and XhoI (New England Biolabs), so that they were N-terminally tagged either with 6x Myc (pCS2+MT) or with the FLAG-tag (pCS2 + Flag).
HEK293T cells were propagated in DMEM GIBCO Glutamax (Life Technologies) supplemented with 10 % fetal calf serum. Cells were seeded in 6–well plates (20–30 % confluency) and transfected the next day using 10 µl Roti-Fect (Carl Roth) per 2 µg total DNA (1 µg DNA per plasmid). Two days after transfection cells were washed with 2 ml PBS buffer (Life Technologies) and harvested for immunoprecipitation in 150 µl cold lysis buffer (10 mM HEPES, 150 mM NaCl, 1 % Nonidet P40, 5 % glycerol, pH 7,4/KOH) supplemented with protease inhibitors and phosphatase inhibitors (Complete mini EDTA free and PhosStop, Roche). Cells were disrupted mechanically with a syringe (cannula diameter 0.55 mm). The lysate was cleared by centrifugation at 13.500 rpm and 4 °C for 10 min. Total protein concentrations were measured with a bicinchoninic acid protein assay (Applichem), typically the total protein amount was 500–600 µg. Loading controls of 50 µg of the lysate were taken accordingly and filled up to 20 µl with lysis buffer before adding 5 µl of 5x sample buffer (250 mM Tris, 5 % SDS, 25 % glycerol, 0.25 % bromophenol blue, 250 mM β–mercaptoethanol, pH 6.8/HCl) and boiling. For immunoprecipitation, 3 µg of mouse anti-c-Myc Epitope antibody 9E10 (sc-40, Santa Cruz) was used per sample. Samples were incubated with the antibody for 45 min at 4 °C with a rotator, then 10 µl of protein G Dynabeads (Life Technologies) equilibrated in the lysis buffer was added to each sample and incubation continued for another 45 min. Samples were washed three times with cold lysis buffer before eluting three times with 20 µl of 100 mM glycine (pH 2.5/HCl). […]

[5] = system: TPC1 subunits co-expressed in Nicotiana benthamiana leaves; assay: Bimolecular fluorescence complementation (Split Venus BiFC); assay type: cell-based; settings: N. benthamiana leaves, plate reader and confocal
Method: For BiFC analyses the gateway entry vector pENTR-D-TOPO and the destination vectors pDEST–^GWVYCE and pDEST–^GWVYNE were used for C-terminal fusion of the Venus C- and N-terminus, respectively, and pDEST–VYCE(R)^GW and pDEST–VYNE(R)^GW for N-terminal tagging.
BiFC studies were performed as described using a Split Venus system. The Agrobacterium strain C58C1 [42] harboring the plasmid of interest and the helper strain p19 [43] were grown in LB medium supplemented with 100 µg/ml Kanamycin at 29 °C overnight. The cultures were brought to an optical density (OD600) of 1.0 in infiltration buffer (10 mM MES, 10 mM MgCl2, 100 µM acetosyringone, pH 5.7/KOH) and the combinations to test for co-expression mixed at equal amounts. The p19 helper strain (OD600 = 1.0) was added to these mixtures in a 1:1 ratio. Suspensions were incubated for 2 h before infiltration into the abaxial side of 6-week-old N. benthamiana leaves. Each leaf was infiltrated with several plasmid combinations and a positive control (TPC1/pDEST-^GWVYCE and TPC1/pDEST-^GWVYNE) as well as a negative control (p19 alone) at separated areas to monitor comparability of the transient expression and to define background fluorescence.
For fluorescence quantification leaf disks (Ø 6 mm) were cut out of the infiltrated areas with a cork borer 2.5 day after infiltration. Leaf disks were placed upside-down in a black 96-well plate prefilled with 70 µl H2O per well to minimize dehydration effects. Fluorescence was measured with a plate-reader (Infinite F200, Tecan) with an excitation wavelength of 485 ± 20 nm and an emission wavelength of 525 ± 25 nm.

[6] = system: tonoplast; assay: Confocal localization of GFP-fusions in tpc1-2 mesophyll protoplasts; assay type: cell-based, Arabidopsis thaliana; settings: GFP-fusion in tpc1-2 mesophyll protoplasts
Method: Expression of GFP-fusion proteins for electrophysiological measurements or confocal microscopy was performed in A. thaliana tpc1-2 mesophyll protoplasts as described. Briefly, leaves were enzymatically digested to release mesophyll protoplasts, which were then transformed by the polyethylene glycol method. Protoplasts were used for electrophysiological measurements and subcellular localization of GFP fluorescence 2–4 days after transformation.
Fluorescence signals were detected and documented with a TCS SP2 confocal laser scanning microscope and the Leica Confocal Software (Leica Microsystems). A 488 nm Argon laser was used for excitation of GFP and of the auto-fluorescence of chlorophyll. GFP-signals were detected from 500 to 556 nm and chlorophyll signals from 675 to 767 nm. Venus was excited with a […] and detected in the range from 520 to 556 nm, the corresponding chlorophyll signals were detected from 637 to 736 nm. Images were processed with Photoshop (Adobe Systems).

For “RSQRVDTAAHHMAGDEL [3LA mutant, 3LA mutant CTH peptide …]”, the “interaction in MST” value [1] was “no interaction was measured”, the “interaction in MST” value ([1]; listed as 3-LA peptide) was “no interactions” and the “interaction in MST” value ([1]; listed as CTH-3LA) was “lack of dimer formation”.

Molecule `CSCC[C@H](NC(=O)[C@H](Cc1c[nH]cn1)NC(=O)[C@H](Cc1c[nH]cn1)NC(=O)[C@H](CC(C)C)NC(=O)[C@H](CC(C)C)NC(=O)[C@@H](NC(=O)[C@H](CC(=O)O)NC(=O)[C@@H](NC(=O)[C@H](CCCNC(=N)N)NC(=O)[C@H](CCC(N)=O)NC(=O)[C@H](CO)NC(=O)[C@@H](N)CCCNC(=N)N)C(C)C)[C@@H](C)O)C(=O)N[C@@H](CC(C)C)C(=O)NCC(=O)N[C@@H](CC(=O)O)C(=O)N[C@@H](CCC(=O)O)C(=O)N[C@@H](CC(C)C)C(=O)O` [CTH peptide] (H-RSQRVDTLLHHMLGDEL-OH) has a Kd [2] of 3.85 ± 1.1 µM.

B1: Synthetic wild type CTH peptide (consensus C-terminal helix of TPC1, residues 707-723) (peptide)
peptide: RSQRVDTLLHHMLGDEL
notes: The two copies are written as one molecule; also called WT peptide; wild type peptide; source: synthetic peptide (Peptide Speciality Laboratories GmbH); not shown: AAWW (short linker and two tryptophans; only on the target copy held at 750 nM), C-terminal, kept
B1 was tested, and the Kd [3] was 3.85 ± 1.1 µM.

B2: TPC1 C-terminus: soluble C-terminus (residues 673–732) of wild type TPC1, N-terminally 6xMyc- or FLAG-tagged, C-terminal GFP fusion (protein)
chain: EAFFTELDLEEEEKCQGQDSQEKRNRRRSAGSKSRSQRVDTLLHHMLGDELSKPECSTSDT-eGFP
modifications: not fully specified (N-terminus); also: N-terminal 6xMyc or FLAG tag
notes: soluble C-terminus (residues 673–732) of wild type TPC1, N-terminally 6xMyc- or FLAG-tagged, C-terminal GFP fusion
With B2 the “Co-IP of C-termini” value [4] was “bound to itself”.

B3: C-terminus of the TPC1-3LP-mutant: soluble C-terminus of TPC1-3LP, N-terminally 6xMyc- or FLAG-tagged, C-terminal GFP fusion (protein)
chain: EAFFTELDLEEEEKCQGQDSQEKRNRRRSAGSKSRSQRVDTPPHHMPGDELSKPECSTSDT-eGFP
modifications: not fully specified (N-terminus); also: N-terminally 6xMyc- or FLAG-tagged
notes: soluble C-terminus of TPC1-3LP, N-terminally 6xMyc- or FLAG-tagged, C-terminal GFP fusion
In the case of B3, the “Co-IP of C-termini” value [4] is reported as “reduced ability to dimerize” and the “Co-IP of C-termini” value ([4]; listed as 3LP-Flag-Ct) is reported as “visibly weaker interaction of the two C-termini”.

B4: N-terminally tagged TPC1: TPC1 subunits N-terminally tagged with Venus halves (BiFC) or GFP (localization) (protein)
chain: MEDPLIGRDSLGGGGTDRVRRSEAITHGTPFQKAAALVDLAEDGIGLPVEILDQSSFGESARYYFIFTRLDLIWSLNYFALLFLNFFEQPLWCEKNPKPSCKDRDYYYLGELPYLTNAESIIYEVITLAILLVHTFFPISYEGSRIFWTSRLNLVKVACVVILFVDVLVDFLYLSPLAFDFLPFRIAPYVRVIIFILSIRELRDTLVLLSGMLGTYLNILALWMLFLLFASWIAFVMFEDTQQGLTVFTSYGATLYQMFILFTTSNNPDVWIPAYKSSRWSSVFFVLYVLIGVYFVTNLILAVVYDSFKEQLAKQVSGMDQMKRRMLEKAFGLIDSDKNGEIDKNQCIKLFEQLTNYRTLPKISKEEFGLIFDELDDTRDFKINKDEFADLCQAIALRFQKEEVPSLFEHFPQIYHSALSQQLRAFVRSPNFGYAISFILIINFIAVVVETTLDIEESSAQKPWQVAEFVFGWIYVLEMALKIYTYGFENYWREGANRFDFLVTWVIVIGETATFITPDENTFFSNGEWIRYLLLARMLRLIRLLMNVQRYRAFIATFITLIPSLMPYLGTIFCVLCIYCSIGVQVFGGLVNAGNKKLFETELAEDDYLLFNFNDYPNGMVTLFNLLVMGNWQVWMESYKDLTGTWWSITYFVSFYVITILLLLNLVVAFVLEAFFTELDLEEEEKCQGQDSQEKRNRRRSAGSKSRSQRVDTLLHHMLGDELSKPECSTSDT
modifications: left off: Venus C-terminal half (VC, one copy) or Venus N-terminal half (VN, the other copy), N-terminal, kept
For B4, the “BiFC signal” value [5] was “did not result in Venus-fluorescence” and the “subcellular localization of GFP-fusion” value [6] was “tonoplast localization”.
